In this test the target is CEACAM1 (carcinoembryonic antigen-related cellular adhesion molecule 1) on human CD4+ T lymphocytes and Jurkat cells (human) (UniProt P13688). The test is described as follows: cell-based or functional assay.
Chain of UniProt P13688 (P13688 35-526): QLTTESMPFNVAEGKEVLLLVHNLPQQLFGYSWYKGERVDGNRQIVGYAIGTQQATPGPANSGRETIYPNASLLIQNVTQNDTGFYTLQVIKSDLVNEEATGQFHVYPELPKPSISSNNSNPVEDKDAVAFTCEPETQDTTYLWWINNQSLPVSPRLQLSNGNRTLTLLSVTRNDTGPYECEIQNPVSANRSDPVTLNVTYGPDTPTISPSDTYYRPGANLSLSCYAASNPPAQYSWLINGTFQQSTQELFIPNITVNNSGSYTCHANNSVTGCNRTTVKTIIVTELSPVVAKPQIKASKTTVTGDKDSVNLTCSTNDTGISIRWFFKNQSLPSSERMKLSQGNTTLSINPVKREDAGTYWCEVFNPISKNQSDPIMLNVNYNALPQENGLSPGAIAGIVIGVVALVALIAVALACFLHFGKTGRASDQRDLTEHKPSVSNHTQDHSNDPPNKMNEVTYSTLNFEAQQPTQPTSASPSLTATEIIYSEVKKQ

“Opa52 protein of Neisseria gonorrhoeae strain MS11, expressed on gonococcal strain N309 (ligand)” had a reduction of IL-2-dependent CD4+ T lymphocyte proliferation at MOI=50, relative to Opa50-expressing gonococci of 34%; a reduction of IL-2-dependent CD4+ T lymphocyte proliferation at MOI=100, relative to Opa50-expressing gonococci of 51%; a reduction of IL-2-dependent CD4+ T lymphocyte proliferation at MOI=200, relative to Opa50-expressing gonococci of 76%.

On to “Opa57 protein of Neisseria gonorrhoeae strain MS11, expressed on gonococcal strain N313 (ligand)”, for which the lowest multiplicity of infection at which inhibition of Jurkat proliferation was apparent (MOI (bacteria/cell)) came out at 25.

The record behind these values is patent publication US20030022292A1.
